Biological target: bacterially expressed USF-1, P22415
Sequence (P22415 whole entry, looked up): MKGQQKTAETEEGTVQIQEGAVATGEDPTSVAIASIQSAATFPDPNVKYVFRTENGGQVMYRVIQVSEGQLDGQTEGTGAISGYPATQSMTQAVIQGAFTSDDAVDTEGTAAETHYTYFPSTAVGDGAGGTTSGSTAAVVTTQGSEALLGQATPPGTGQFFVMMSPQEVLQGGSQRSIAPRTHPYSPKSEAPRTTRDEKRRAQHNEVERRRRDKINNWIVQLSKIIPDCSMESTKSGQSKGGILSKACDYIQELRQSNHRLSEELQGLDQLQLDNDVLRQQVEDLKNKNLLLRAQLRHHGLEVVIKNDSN

B1: P/CAF (Upstate), recombinant/purified enzyme (protein)
chain: MLEEEVYSQNSPIWDQDFLSASSRTSQLGIQTVINPPPVAGTISYNSTSSSLEQPNAGSSSPACKASSGLEANPGEKRKMTDSHVLEEAKKPRVMGDIPMELINEVMSTITDPAAMLGPETNFLSAHSARDEAARLEERRGVIEFHVVGNSLNQKPNKKILMWLVGLQNVFSHQLPRMPKEYITRLVFDPKHKTLALIKDGRVIGGICFRMFPSQGFTEIVFCAVTSNEQVKGYGTHLMNHLKEYHIKHDILNFLTYADEYAIGYFKKQGFSKEIKIPKTKYVGYIKDYEGATLMGCELNPRIPYTEFSVIIKKQKEIIKKLIERKQAQIRKVYPGLSCFKDGVRQIPIESIPGIRETGWKPSGKEKSKEPRDPDQLYSTLKSILQQVKSHQSAWPFMEPVKRTEAPGYYEVIRFPMDLKTMSERLKNRYYVSKKLFMADLQRVFTNCKEYNPPESEYYKCANILEKFFFSKIKEAGLIDK
in vitro acetylation of USF-1: USF-1 was acetylated in vitro by P/CAF (lane 3), and acetylation was not detected in the absence of P/CAF or acetyl CoA (lane 1 and 2)
